{"source": "patent US20140286963A1", "key": {"[1]": {"molecular_target": "murine BACE1 ECD (amino acids 1-457) (murine) (UniProt P56818)", "sequence (P56818 22-457 limits assumed, form in doubt)": "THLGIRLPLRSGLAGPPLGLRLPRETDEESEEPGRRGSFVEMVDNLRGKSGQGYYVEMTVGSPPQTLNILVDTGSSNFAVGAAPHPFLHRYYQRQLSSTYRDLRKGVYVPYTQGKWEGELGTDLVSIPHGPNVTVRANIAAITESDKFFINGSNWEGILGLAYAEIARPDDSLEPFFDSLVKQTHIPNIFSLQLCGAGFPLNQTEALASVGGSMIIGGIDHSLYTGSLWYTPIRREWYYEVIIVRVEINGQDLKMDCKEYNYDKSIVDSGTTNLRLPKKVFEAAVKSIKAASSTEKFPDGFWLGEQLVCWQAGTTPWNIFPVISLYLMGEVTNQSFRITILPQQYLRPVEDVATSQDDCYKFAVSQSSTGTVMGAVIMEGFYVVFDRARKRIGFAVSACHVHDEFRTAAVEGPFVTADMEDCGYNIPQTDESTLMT", "assay": "SPR (BIAcore-3000), IgG captured by anti-human Fc antibody, BACE1 ECD injected, 25 C, pH 7.0"}, "[2]": {"molecular_target": "murine BACE1 ECD (amino acids 1-457) (murine) (UniProt P56818)", "assay": "SPR (BIAcore-3000), second unlabelled row under Mouse, IgG captured by anti-human Fc antibody, pH 7.0"}}}
{"binder": "YW412.8.31 anti-BACE1 human IgG (antibody, V domains shown) VH: EVQLVESGGGLVQPGGSLRLSCAASGFTFLGYGIHWVRQAPGKGLEWVGWISPAGGSTDYADSVKGRFTISADTSKNTAYLQMNSLRAEDTAVYYCARGPFSPWVMDYWGQGTLVTVSS VL: DIQMTQSPSSLSASVGDRVTITCRASQDVSTAVAWYQQKPGKAPKLLIYSASFLYSGVPSRFSGSGSGTDFTLTISSLQPEDFATYYCQQFPTYLPTFGQGTKVEIK", "values": [{"measurement": "Kd", "setting": "[1]", "result": 2.1, "unit": "nM"}, {"measurement": "koff", "setting": "[1]", "result": 0.00029, "unit": "s⁻¹"}, {"measurement": "kon", "setting": "[1]", "result": 140000, "unit": "M⁻¹ s⁻¹"}, {"measurement": "Kd", "setting": "[2]", "result": 1.4, "unit": "nM"}, {"measurement": "koff", "setting": "[2]", "result": 0.000141, "unit": "s⁻¹"}, {"measurement": "kon", "setting": "[2]", "result": 101000, "unit": "M⁻¹ s⁻¹"}]}
